Measurements: article PMC5428419

Molecular target: biotinylated sRAGE from transgenic silkworms co-expressing BirA and fed biotin bait (human) (UniProt Q15109)
Assay: SPR; Biacore 2000; biotinylated sRAGE on SA sensor chip via the C-terminal biotin, about 560 RU; F-AGEs 0.25-4 uM injected, single-cycle kinetics, 30 uL/min, 25 C, PBS (-); 1:1 Langmuir model

UniProt Q15109, sequence (Q15109 23-332): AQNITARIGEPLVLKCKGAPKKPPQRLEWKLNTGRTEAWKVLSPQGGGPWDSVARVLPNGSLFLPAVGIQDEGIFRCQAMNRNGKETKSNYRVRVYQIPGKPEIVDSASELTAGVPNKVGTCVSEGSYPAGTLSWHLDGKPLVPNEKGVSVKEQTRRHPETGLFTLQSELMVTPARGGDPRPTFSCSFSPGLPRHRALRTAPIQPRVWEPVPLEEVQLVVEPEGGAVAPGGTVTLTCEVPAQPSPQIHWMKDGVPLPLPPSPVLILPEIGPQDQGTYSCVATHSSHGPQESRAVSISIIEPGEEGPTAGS

Substance: fructose-BSA (fructose-derived AGE-BSA) (from UniProt P02769 25-607) (ligand)
- Kd: 725 nM
- koff: 0.00165 s⁻¹
- kon: 7250 M⁻¹ s⁻¹
